Source: patent US20210145976A1

Target: human serum albumin (human) (UniProt P02768)
Test: screening ELISA

Chain of human serum albumin (human) (P02768 25-609 limits assumed): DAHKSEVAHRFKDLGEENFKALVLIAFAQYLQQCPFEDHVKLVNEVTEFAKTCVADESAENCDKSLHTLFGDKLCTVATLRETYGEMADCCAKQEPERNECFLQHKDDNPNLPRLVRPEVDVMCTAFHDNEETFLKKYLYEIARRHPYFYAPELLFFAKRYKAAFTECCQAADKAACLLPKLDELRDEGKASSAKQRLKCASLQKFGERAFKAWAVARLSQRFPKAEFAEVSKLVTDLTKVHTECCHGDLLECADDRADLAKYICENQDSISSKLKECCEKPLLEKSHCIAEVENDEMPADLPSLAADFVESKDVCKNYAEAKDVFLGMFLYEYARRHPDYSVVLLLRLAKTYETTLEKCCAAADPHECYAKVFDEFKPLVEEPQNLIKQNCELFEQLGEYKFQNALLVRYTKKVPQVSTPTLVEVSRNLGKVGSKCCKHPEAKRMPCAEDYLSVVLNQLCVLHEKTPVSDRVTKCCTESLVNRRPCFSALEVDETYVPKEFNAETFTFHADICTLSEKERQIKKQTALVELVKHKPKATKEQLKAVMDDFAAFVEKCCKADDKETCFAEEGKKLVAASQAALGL

| HSA | Binder |
| --- | --- |
| 11800 | SEQ ID NO 290 (designed binder) MLPAPKNLVVSRVTEDSARLSWTAPDAAFDSFFYLEQAWGGEAIVLTVPGSERSYDLTGLKPGTEYWVEITGVKGGYASSPLSAIFTT |
| 12000 | SEQ ID NO 301 (designed binder) MLPAPKNLVVSRVTEDSARLSWTAPDAAFDSFEIEYDEPYRGGEAIVLTVPGSERSYDLTSLKPGTEYPVSIGGVKGGITSDPLSAIFTT |
| 2250 | SEQ ID NO 306 (designed binder) MLPAPKNLVVSRVTEDSARLSWTAPDAAFDSFYIEYFETQGYGEAIVLTVPGSERSYDLTGLKPGTEYYVAIYGVKGGYLSRPLSAIFTT |
| 34000 | SEQ ID NO 298 (designed binder) MLPAPKNLVVSRVTEDSARLSWTAPDAAFDSFPIAYAEPRPDGEAIVLTVPGSERSYDLTGLKPGTEYSVLIHGVKGGLLSSPLSAISTT |
| 21200 | SEQ ID NO 302 (designed binder) MLPAPKNLVVSRVTEDSARLSWTAPDAAFDSFDIYYPEYYDRGEAIVLTVPGSERSYDLTGLKPGTEYTVYIDGVKGGGGSGPLSAIFTT |
| 2200 | SEQ ID NO 299 (designed binder) MLPAPKNLVVSRVTEDSARLSWTAPDAAFDSFLIEYWESVGYGEAIVLTVPGSERSYDLTGLKPGTEYWVGIYGVKGGYYSRPLSAIFTT |
| 4050 | SEQ ID NO 300 (designed binder) MLPAPKNLVVSRVTEDSARLSWTAPDAAFDSFFIGYLEPQPPGEAIVLTVPGSERSYDLTGLKPGTEYNVTIHGVKGGTPSMPLSAIFTT |
| 12300 | SEQ ID NO 308 (designed binder) MLPAPKNLVVSEVTEDSARLSWQGVARAFDSFLITYREQIFAGEVIVLTVPGSERSYDLTGLKPGTEYPVWIQGVKGGSPSAPLSAISTT |
| 52600 | SEQ ID NO 297 (designed binder) MLPAPKNLVVSRVTEDSARLSWTAPDAAFDSFLIPYAETSPSGEAITLFVPGSERSYDLTGLKPGTEYNVVIQGVKGGRPSNPLVAASTT |
| 8250 | SEQ ID NO 294 (designed binder) MLPAPKNLVVSRVTEDSARLSWTAPDAAFDSFSIIYSEWNVTGEAIVLTVPGSERSYDLTGLKPGTEYDVWIEGVKGGGMSKPLSAISTT |
| 2150 | SEQ ID NO 291 (designed binder) MLPAPKNLVVSRVTEDSARLSWTAPDAAFDSFHIEYEEPETEGEAIYLHVPGSERSYDLTGLKPGTEYKVLIRGVKGGSYSIPLQAPFTT |
| 25000 | SEQ ID NO 305 (designed binder) MLPAPKNLVVSRVTEDSARLSWTAPDAAFDSFEIDYDEPFVYGEAIVLTVPGSERSYDLTGLKPGTEYRVFIFGVKGGNGSWPLSAIFTT |
| 3800 | SEQ ID NO 295 (designed binder) MLPAPKNLVVSRVTEDSARLSWTAPDAAFDSFFIGYLEPIPSGEAIVLTVPGSERSYDLTGLKPGTEYPVVIQGVKGGHPSQPLSAIFTT |
| 4350 | SEQ ID NO 307 (designed binder) MLPAPKNLVVSRVTEDSARLSWTAPDAAFDSFPITYSEPAHYGEAIVLTVPGSERSYDLTGLKPGTEYHVGIMGVKGGVFSSPLSAIFTT |
| 8850 | SEQ ID NO 292 (designed binder) MLPAPKNLVVSRVTEDSARLSWTAPDAAFDSFDIAYWELTPSGEAIELLVPGSERSYDLTGLKPGTEYRVDIIGVKGGFISEPLGATFTT |
| 2650 | SEQ ID NO 303 (designed binder) MLPAPKNLVVSRVTEDSARLSWTAPDAAFDSFFIAYFEFANPGEAIVLTVPGSERSYDLTGLKPGTEYKVVIQGVKGGTPSEPLSAIFTT |
| 2850 | SEQ ID NO 309 (designed binder) MLPAPKNLVVSRVTEDSARLSWTAPDAAFDSFIIDYLELDQEGEAIVLTVPGSERSYDLTGLKPGTEYAVYIFGVKGGYPSTPLSAIFTT |

The next lines start with the binder.

| Binder | HSA |
| --- | --- |
| SEQ ID NO 281 (designed binder) MLPAPKNLVVSRVTEDSARLSWTAPDAAFDSFYIDYDEIHDWGEAIVLTVPGSERSYDLTGLKPGTEYAVQIGGVKGGSFSWTLSAIFTT | 22400 |
| SEQ ID NO 271 (designed binder) MLPAPKNLVVSRVTEDSARLSWTAPDAAFDSFYIPYAETRDDGEAIVLTVPGSERSYDLTGLKPGTEYSVLIHGVKGGDLSSPLSAIFTT | 3050 |
| SEQ ID NO 272 (designed binder) MLPAPKNLVVSRVTEDSARLSWTAPDAAFDSFGIPYAESTPTGEAIVLTVPGSERSYDLTGLKPGTEYSVLIHGVKGGHLSDPLSAIFTT | 8950 |
| SEQ ID NO 283 (designed binder) MLPAPKNLVVSRVTEDSARLSWTAPDAAFDSFPIAYAEPRPDGEAIVLTVPGSERSYDLTGLKPGTEYSVLIHGVKGGLLSSPLSAIFTT | 6250 |
| SEQ ID NO 278 (designed binder) MLPAPKNLVVSRVTEDSARLSWTAPDAAFDSFPIAYAEPRPDGEAIVLTVPGSERSYDLTGLKPGTEYSVLIHGVKGGHLSDPLSAIFTT | 6500 |
| SEQ ID NO 285 (designed binder) MLPAPKNLVVSRVTEDSARLSWTAPDAAFDSFLIPYAETSPSGEAIVLTVPGSERSYDLTGLKPGTEYSVLIHGVKGGDYSSPLSAIFTT | 2200 |
| SEQ ID NO 288 (designed binder) MLPAPKNLVVSRVTEDSARLSWTAPDAAFDSFLIPYAETSPSGEAIVLTVPGSERSYDLTGLKPGTEYSVLIHGVKGGDYSSPLSAISTT | 40800 |
| SEQ ID NO 275 (designed binder) MLPAPKNLVVSRVTEDSARLSWTAPDAAFDSFLIAYAEVTLHGEAIVLTVPGSERSYDLTGLKPGTEYSVLIHGVKGGRNSDPLSAIFTT | 3800 |
| SEQ ID NO 286 (designed binder) MLPAPKNLVVSRVTEDSARLSWTAPDAAFDSFNIYYPEFPVRGEAIVLTVPGSERSYDLTGLKPGTEYVVSIWGVKGGTQSWPLSAIFTT | 10800 |
| SEQ ID NO 54 (designed binder) MLPAPKNLVVSRVTEDSARLSWTAPDAAFDSFQILYQENAFEGEAIVLTVPGSERSYDLTGLKPGTEYWVYIYGVKGGYPSVPLSAIFTT | 6160 |
| SEQ ID NO 57 (designed binder) MLPAPKNLVVSRVTEDSARLSWTAPDAAFDSFSIKYLEWWQDGEAIVLTVPGSERSYDLTGLKPGTEYYVHIAGVKGGYRSYPLSAIFTT | 16900 |
| SEQ ID NO 274 (designed binder) MLPAPKNLVVSRVTEDSVRLSWTAPDAAFDSFAISYEEWWVHGEAIVLTVPGSERSYDLTGLKPGTEYSVVIPGVKGGLYSWTLSAISTT | 11900 |
| SEQ ID NO 279 (designed binder) MLPAPKNLVVSRVTEDSARLSWTAPDAAFDSFSIEYYESVGLGEAIVLTVPGSERSYDLTGLKPGTEYDVSIYGVKGGYLSRPLSAIFTT | 3150 |
| SEQ ID NO 55 (designed binder) MLPAPKNLVVSRVTEDSARLSWTAPDAAFDSFIIEYWEFVGYGEAIVLTVPGSERSYDLTGLKPGTEYWVAIYGVKGGDLSKPLSAIFTT | 7760 |
| SEQ ID NO 287 (designed binder) MLPAPKNLVVSRVTEDSARLSWTAPDAAFDSFTIEYHESGPVGEAIVLTVPGSERSYDLTGLKPGTEYMVWIFGVKGGFVSRPLSAIFTT | 5500 |
| SEQ ID NO 56 (designed binder) MLPAPKNLVVSRVTEDSARLSWTAPDAAFDSFVIEYFEALEGGEAIVLTVPGSERSYDLTGLKPGTEYFVGIYGVKGGPLSKPLSAIFTT | 7520 |
| SEQ ID NO 277 (designed binder) MLPAPKNLVVSRVTEDSARLSWTAPDAAFDSFWINYYEGIGEGEAIVLTVPGSERSYDLTGLKPGTEYYVDISGVKGGSYSLPLSAIFTT | 5200 |
| SEQ ID NO 60 (designed binder) MLPAPKNLVVSRVTEDSARLSWTAPDAAFDSFTIWYAEAIGHGEAIVLTVPGSERSYDLTGLKPGTEYWVDIWGVKGGQQSKPLSAIFTT | 6480 |
| SEQ ID NO 282 (designed binder) MLPAPKNLVVSRVTEDSARLSWTAPDAAFDSFAIVYHEPRPDGEAIVLTVPGSERSYDLTGLKPGTEYEVVILGVKGGVHSYPLSAIFTT | 18600 |
| SEQ ID NO 289 (designed binder) MLPAPKNLVVSRVTEDSARLSWTAPDAAFDSFAIPYYEDTNDGEAIVLTVPGSERSYDLTGLKPGTEYWVSIQGVKGGTVSGPLSAIFTT | 2150 |
| SEQ ID NO 81 (designed binder) MLPAPKNLVVSRVTEDSARLSWTAPDAAFDSFVIEYREGAWYGEAIVLTVPGSERSYDLTGLKPGTEYAVYIPGVKGGPRSFPLSAIFTT | 28600 |
| SEQ ID NO 34 (designed binder) MLPAPKNLVVSRVTEDSARLSWTAPDAAFDSFAITYIEWWDVGEAIGLKVPGSERSYDLTGLKPGTEYRVHIQGVKGGNNSYPLDALFTT | 25900 |
| SEQ ID NO 61 (designed binder) MLPAPKNLVVSRVTEDSARLSWRVESRTFDSFLIQYQESEKVGEAIVLTVPGSERSYDLTGLKPGTEYTVSIYGVVWDTRDNPISNPLSAIFTT | 10600 |
| SEQ ID NO 276 (designed binder) MLPAPKNLVVSRVTEDSARLSWTAPDAAFDSFRIDYLELTSLGEAIVLTVPGSERSYDLTGLKPGTEYPVPILGVKGGLSSWPLSAIFTT | 12400 |
